We go through four molecules from publication PMC5898484, “Two Differential Binding Mechanisms of FG-Nucleoporins and Nuclear Transport Receptors” (Cell Reports, 2018).

For assay [1], the target named is FG-Nup214^Glc labelled for stopped-flow kinetics. In words: stopped-flow fluorescence anisotropy; association under pseudo-first order conditions (>10-fold excess of the NTR); kobs from single exponential fits, kon from the slope of kobs versus NTR concentration; excitation 532 nm.
Assay [2] addresses FG-Nup214 labelled for stopped-flow anisotropy. Described as above.
Assay [3] addresses FG-Nup214^117 (117-aa fragment of FG-Nup214), wild type, labelled for FRET. In words: single-molecule FRET (smFRET) titration; fractions of bound (low E_FRET) and unbound (high E_FRET) FG-Nup214^117 as a function of CRM1 concentration, with 1 μM RanGTP.
Assay [4] has as its target FG-Nup214^117 proline triple mutant A1927P/A2017P/A2019P. The description is as above.
In assay [5] the target is FG-Nup214^117 proline double mutant A1927P/A2017P. The assay is described as above.
Assay [6] deals with FG-Nup214 labelled for stopped-flow anisotropy. Nature of the assay: stopped-flow fluorescence, dissociation; preformed FG-Nup⋅NTR complex rapidly mixed with 100× (2 μM) excess of unlabeled FG-Nup.
In assay [7] the target is FG-Nup153^Glc labelled for stopped-flow kinetics. In words: stopped-flow fluorescence anisotropy; association under pseudo-first order conditions (>10-fold excess of the NTR); kobs from single exponential fits, kon from the slope of kobs versus NTR concentration; excitation 532 nm.
Assay [8] has as its target FG-Nup153 labelled for stopped-flow kinetics. In words: stopped-flow fluorescence, dissociation; preformed FG-Nup⋅NTR complex rapidly mixed with 100× (2 μM) excess of unlabeled FG-Nup.
Assay [9] deals with T1, CRM1 (export receptor, exportin) (UniProt O14980 1-1071).
T1 construct: exportin CRM1; Construct details in the Supplemental Experimental Procedures; also called exportin CRM1
In words: stopped-flow fluorescence (donor signal of a FRET-labelled sample); association; donor signal change of FRET-labelled FG-Nup214 instead of anisotropy. To be noted: both partners purified.

T1 sequence (O14980 whole entry): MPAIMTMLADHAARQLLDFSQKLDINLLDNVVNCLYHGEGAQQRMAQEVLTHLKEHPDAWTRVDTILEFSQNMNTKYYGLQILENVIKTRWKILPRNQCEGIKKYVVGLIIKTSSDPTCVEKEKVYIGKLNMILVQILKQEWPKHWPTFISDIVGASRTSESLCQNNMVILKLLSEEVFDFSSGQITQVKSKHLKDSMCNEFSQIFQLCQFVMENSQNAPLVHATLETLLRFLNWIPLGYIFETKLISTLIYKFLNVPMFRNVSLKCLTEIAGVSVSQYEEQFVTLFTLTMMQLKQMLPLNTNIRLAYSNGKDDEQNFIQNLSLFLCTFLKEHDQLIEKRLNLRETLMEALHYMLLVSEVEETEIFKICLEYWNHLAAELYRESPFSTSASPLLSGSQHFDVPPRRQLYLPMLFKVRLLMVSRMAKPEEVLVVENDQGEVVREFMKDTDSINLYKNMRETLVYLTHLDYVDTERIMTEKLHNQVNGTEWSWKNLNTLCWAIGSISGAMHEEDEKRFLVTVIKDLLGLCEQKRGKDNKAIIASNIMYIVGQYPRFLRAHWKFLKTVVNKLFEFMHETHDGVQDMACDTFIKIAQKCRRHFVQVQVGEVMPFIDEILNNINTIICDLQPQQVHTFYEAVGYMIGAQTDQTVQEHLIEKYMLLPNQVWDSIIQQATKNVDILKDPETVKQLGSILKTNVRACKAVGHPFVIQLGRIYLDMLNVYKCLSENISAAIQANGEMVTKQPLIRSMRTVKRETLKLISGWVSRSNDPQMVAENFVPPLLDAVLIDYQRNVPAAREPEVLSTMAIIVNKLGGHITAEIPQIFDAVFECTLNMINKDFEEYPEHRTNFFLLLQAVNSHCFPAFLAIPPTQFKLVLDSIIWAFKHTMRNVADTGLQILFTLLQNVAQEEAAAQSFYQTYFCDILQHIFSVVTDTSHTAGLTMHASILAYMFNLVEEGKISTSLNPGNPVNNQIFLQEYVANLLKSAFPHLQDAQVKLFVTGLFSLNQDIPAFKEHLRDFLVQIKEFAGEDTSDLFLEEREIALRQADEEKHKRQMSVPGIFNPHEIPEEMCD

On to “CRM1 (export receptor, exportin) (from UniProt O14980 1-1071)”, for which the on-rate constant (kon) came to 3.8e+07 M⁻¹ s⁻¹ in [1] and 4e+07 M⁻¹ s⁻¹ in assay [2].

As to “CRM1⋅RanGTP complex (from UniProt O14980 1-1071; P62826 1-216)”, the results for the kon in assay [1] and in [2] were 1.3e+07 M⁻¹ s⁻¹ and 2.1e+07 M⁻¹ s⁻¹, respectively. For the same molecule, the Kd in assay [3] is 35 nM; in assay [4], 222 nM; in assay [5], 53 nM. In assay [6], this molecule gave a complex half-life of 5 s. The same molecule returned a koff in assay [6] of 0.14 s⁻¹.

Regarding “Importinβ (import receptor) (from UniProt Q14974 1-876)”, in assay [7], the kon came to 8.5e+08 M⁻¹ s⁻¹. In [8], this molecule returned a complex half-life of 0.08 s and a koff of 8.7 s⁻¹.

B1: FG-Nup214 (FG domain of Nup214), double-labelled for FRET (domain or fragment)
chain: ATTTSVAPPAATSTSSTAVFGSLPVTSAGSSGVISFGGTSLSAGKTSFSFGSQQTNSTVPPSAPPPTTAATPLPTSFPTLSFGSLLSSATTPSLPMSAGRSTEEATSSALPEKPGDSEVSASAASLLEEQQSAQLPQAPPQTSDSVKKEPVLAQPAVSNSGTAASSTSLVALSAEATPATTGVPDARTEAVPPASSFSVPGQTAVTAAAISSAGPVAVETSSTPIASSTTSIVAPGPSAEAAAFGTVTSGSSVFAQPPAASSSSAFNQLTNNTATAPSATPVFGQVAASTAPSLFGQQTGSTASTAAATPQVSSSGFSSPAFGTTAPGVFGQTTFGQASVFGQSASSAASVFSFSQPGFSSVPAFGQPASSTPTSTSGSVFGAASSTSSSSSFSFGQSSPNTGGGLFGQSNAPAFGQSPGFGQGGSVFGGTSAATTTAATSGFSFCQASGFGSSNTGSVFGQAASTGGIVFGQQSSSSSGSVFGSGNTGRGGGFFSGLGGKPSQDAANKNPFSCASGGFGSTATSNTSNLFGNSGAKTFGGFASSSFGEQKPTGTFSSGGGSVASQGFGFSSPNKTGGFGAAPVFGSPPTFGGSPGFGGVPAFGSAPAFTSPLGSTGGKVFGEGTAAASAGGFGFGSSSNTTSFGTLASQNAPTFGSLSQQTSGFGTQSSGFSGFGSGTGGFSFGSNNSSVQGFGGWRS
modifications: Alexa594-maleimide (acceptor) on the Cys introduced at 1,905; p-acetylphenylalanine (AcF) at 2,043 labelled with Alexa488-hydroxylamine (donor)
For B1, the kon in [9] was determined as 3e+07 M⁻¹ s⁻¹.
